Test results reported in patent US20230312686A1 (Bristol-Myers Squibb, published 2023).
One block for each binder: values may come before it.

Legend:
[1] = target: T1, Human glypican-3 on cells (Huh7, Hep3B, H446, Hep3B xenograft tissue) (human, UniProt P51654 25-554); test: cell-based or functional assay
[2] = target: T2, Recombinant human glypican-3 (aa 1-559), His-tagged, R&D Systems (human, UniProt P51654 25-559); test: SPR KD, 37 C, Biacore T100
T2 construct: also called huGPC3; Hu GPC3-His
Protocol: (§1) For off-rate measurements, single 200 nM adnectin/AdxDC concentrations were injected using identical conditions. One 30s injection of 10 mM glycine pH 1.7 was used to remove bound adnectin and regenerate the GPC3 surfaces between assay cycles.
(§2) Rate constants kₐ (kₒₙ) and kd (koff) were derived from reference-subtracted sensorgrams fit to a 1:1 binding model in Biacore T100 Evaluation Software v2.0.4 (GE Healthcare). The affinity constant, KD was calculated from the ratio of rate constants kd/kₐ.

[3] = target: T1, Human glypican-3 on cells (Huh7, Hep3B, …); test: flow cytometry on Hep3B cells, His Tag PE antibody
Protocol: GPC3 AdxDC were evaluated by flow cytometry for binding to human Hep3B hepatocellular carcinoma cells grown in MEM with 10% FBS, and H446 small cell lung carcinoma cells grown in RPMI with 10% FBS. Cells were harvested using Cellstripper, a non-enzymatic cell dissociation solution from Mediatch (Corning: Manassas, VA 20109), Cat. #25-056-CL. Tumor cells (25,000/reaction) were suspended in FACS buffer (PBS+5% FBS+0.01% NaN₃) and mixed with a serial dilution of AdxDC for 1 hour on ice. Cells were washed three times with FACS buffer, and bound AdxDC was detected with His Tag PE-conjugated Antibody from R&D System, cat #IC050P, and read on a flow cytometer.

[4] = target: T1, Human glypican-3 on cells (Huh7, Hep3B, …); test: staining of Hep3B xenograft tissue
[5] = target: T2, Recombinant human glypican-3 (aa …); test: SPR
[6] = target: T1, Human glypican-3 on cells (Huh7, Hep3B, …); test: flow cytometry on Huh7 cells, alkylated Adnectin
[7] = target: T3, Recombinant murine glypican-3 (aa 25-557), R&D Systems (murine, UniProt Q8CFZ4 25-557); test: SPR, 37 C
T3 construct: also called muGPC3; Mu GPC3-His
Protocol: as §1, §2

[8] = target: T2, Recombinant human glypican-3 (aa …); test: SPR, 37 C
Protocol: as §1, §2

[9] = target: T1, Human glypican-3 on cells (Huh7, Hep3B, …); test: cell-based or functional assay; remark: listed apart in the source
[10] = target: T1, Human glypican-3 on cells (Huh7, Hep3B, …); test: flow cytometry on Huh7 cells, unconjugated protein; Huh7 cells; unconjugated protein
Protocol: The binding of DG variants to huGPC3 in DG GPC3 AdxDCs mutants were evaluated by flow cytometry for binding to Huh7 carcinoma cells grown in DMEM media with 10% FBS. Cells were harvested using Versene, an EDTA cell dissociation solution from Lonza, Cat. #17-711E. Tumor cells (1E5 cells/reaction) were suspended in FACS buffer (PBS, 1% BSA, 0.05% Na Azide) and mixed with a serial dilution of AdxDC for one hour on ice. Cells were washed three times with FACS buffer, and bound AdxDC was detected with an in house anti-scaffold monoclonal Ab and PE-conjugated Antibody from (RnD Systems), cat #NL007, and read on a flow cytometer.

[11] = target: T3, Recombinant murine glypican-3 (aa …); test: SPR, Biacore T100, 37 C, GPC3 immobilised, DAR1 AdxDC
Protocol: as §1, §2

[12] = target: T2, Recombinant human glypican-3 (aa …); test: as above
Protocol: as §1, §2

[13] = target: T3, Recombinant murine glypican-3 (aa …); test: SPR, as in the previous Examples
Protocol: as §1, §2
(§3) FITC Labeling: ADX_6077_F02 and non-binding control Adnectin were reduced with DTT or TCEP followed by G25 gel filtration chromatography or dialysis. Excess Fluorescein-5-maleimide reagent (Thermo Scientific) was then added and the mixture incubated at room temperature for approximately 2 hours followed by G25 gel filtration chromatography or extensive dialysis (3-4 buffer changes). The resulting degree of labeling was measured by absorbance following the manufacturer's instructions and/or by mass spectrometry. The binding affinities of FITC-labeled and PEGylated […] for human and murine GPC3 was evaluated as described in the previous Examples, and the results are summarized in Table 13.

[14] = target: T2, Recombinant human glypican-3 (aa …); test: SPR, as in the previous Examples
Protocol: as §1, §2, §3

[15] = target: T3, Recombinant murine glypican-3 (aa …); test: SPR, Biacore T100, GPC3-His immobilised, 1:1 fit
Protocol: (§4) The binding affinities of the alkylated GPC3 DG mutant adnectins for human and murine GPC3 were further evaluated by Biacore T100 using HBS-P+ running buffer with direct immobilization of human and mouse GPC3 proteins [Hu (Fc 2,3) and Mu (Fc 4) GPC3-His (R&D Systems)] with a 200-1.56 nM series injected for 180s association, 600s dissociation.

[16] = target: T2, Recombinant human glypican-3 (aa …); test: SPR, Biacore T100, GPC3-His immobilised, 1:1 fit
Protocol: as §4

T3 sequence (Q8CFZ4 25-557 limits assumed, form in doubt): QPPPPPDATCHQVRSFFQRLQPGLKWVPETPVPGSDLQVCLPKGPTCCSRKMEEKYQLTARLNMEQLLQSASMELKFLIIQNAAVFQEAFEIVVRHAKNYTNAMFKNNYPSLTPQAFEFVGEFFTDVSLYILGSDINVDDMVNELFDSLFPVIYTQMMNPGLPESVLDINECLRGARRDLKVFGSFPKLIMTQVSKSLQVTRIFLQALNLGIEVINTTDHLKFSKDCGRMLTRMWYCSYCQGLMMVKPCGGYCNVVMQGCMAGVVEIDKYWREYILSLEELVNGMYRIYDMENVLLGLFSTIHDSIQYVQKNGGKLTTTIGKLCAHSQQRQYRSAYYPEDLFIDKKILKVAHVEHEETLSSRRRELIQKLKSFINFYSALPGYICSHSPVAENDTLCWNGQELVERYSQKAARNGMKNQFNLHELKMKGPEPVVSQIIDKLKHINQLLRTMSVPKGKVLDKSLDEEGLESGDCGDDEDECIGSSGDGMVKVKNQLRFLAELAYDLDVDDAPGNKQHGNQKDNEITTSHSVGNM
T1 sequence (P51654 25-554 limits assumed): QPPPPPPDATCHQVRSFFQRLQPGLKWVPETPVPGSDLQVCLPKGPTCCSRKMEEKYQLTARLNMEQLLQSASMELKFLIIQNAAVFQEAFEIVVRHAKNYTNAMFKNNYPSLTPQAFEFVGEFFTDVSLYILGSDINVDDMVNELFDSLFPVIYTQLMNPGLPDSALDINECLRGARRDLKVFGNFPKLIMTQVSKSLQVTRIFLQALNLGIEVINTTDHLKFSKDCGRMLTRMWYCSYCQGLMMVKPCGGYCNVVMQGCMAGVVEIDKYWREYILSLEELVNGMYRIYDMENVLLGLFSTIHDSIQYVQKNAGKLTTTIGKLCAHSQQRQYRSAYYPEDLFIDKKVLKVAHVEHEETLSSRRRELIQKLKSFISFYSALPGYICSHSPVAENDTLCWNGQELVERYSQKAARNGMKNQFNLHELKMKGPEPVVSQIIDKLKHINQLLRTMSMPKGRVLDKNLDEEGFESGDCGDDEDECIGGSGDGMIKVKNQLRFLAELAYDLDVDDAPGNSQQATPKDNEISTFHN
T2 sequence (P51654 other isoform, or with tags, fused parts or gaps): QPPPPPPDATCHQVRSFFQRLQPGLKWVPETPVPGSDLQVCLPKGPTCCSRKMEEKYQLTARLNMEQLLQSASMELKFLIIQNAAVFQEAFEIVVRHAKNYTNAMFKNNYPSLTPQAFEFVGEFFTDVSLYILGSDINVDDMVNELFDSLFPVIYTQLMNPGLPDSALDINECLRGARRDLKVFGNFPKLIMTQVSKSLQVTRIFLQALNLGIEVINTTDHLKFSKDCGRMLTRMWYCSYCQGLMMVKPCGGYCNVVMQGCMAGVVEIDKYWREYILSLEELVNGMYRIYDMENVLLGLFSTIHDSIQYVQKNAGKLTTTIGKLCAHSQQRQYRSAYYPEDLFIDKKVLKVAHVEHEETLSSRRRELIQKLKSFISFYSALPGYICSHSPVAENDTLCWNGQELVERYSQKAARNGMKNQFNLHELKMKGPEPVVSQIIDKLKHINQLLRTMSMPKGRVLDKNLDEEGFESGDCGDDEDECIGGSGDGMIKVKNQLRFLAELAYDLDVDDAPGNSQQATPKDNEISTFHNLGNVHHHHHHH

binding result [4]: no binding (tested: 0.2 µg/ml) | binding result [5]: no binding
B2: RGE-FITC (designed binder)
chain: MGVSDVPRDLEVVAATPTSLLISWDAPAVTVRYYRITYGETGGNSPVQEFTVPGSKSTATISGLKPGVDYTITVYAVTGRGESPASSKPISINYRTPCHHHHHH
modifications: fluorescein-5-maleimide on the C-terminal cysteine

Kd [7]: 23 nM | koff [7]: 0.00095 s⁻¹ | Kd [8]: 25 nM | koff [8]: 0.0021 s⁻¹
B4: GPC3_AdxDC DA variant-DAR1 (designed binder)
chain: GVSDVPRDLEVVAATPTSLLISWSDDYHAHRYYRITYGETGGNSPVQEFTVPGEHVTATISGLKPGVDYTITVYAVTYDAEKAATDWSISINYRTPC
modifications: tubulysin analog-linker conjugated to the C-terminal cysteine (DAR1)
notes: also called DA variant AdxDC DAR1; GPC3_AdxDC (DA) DAR1
Cell-killing IC50 (Huh7) [9]: 0.2 nM

The next lines start with the binder.

B1: ADX_6093_A01 DAR1 AdxDC (non-binding control) (designed binder)
chain: B2 chain
modifications: tubulysin analog-linker (formula IV) on the C-terminal cysteine (DAR1)
notes: Control 10Fn3 with RGE in place of RGD; also called RGE AdxDC
AdxDC cell-killing IC50 [1]: > 25 nM | binding result [2]: no binding | binding result [3]: no binding (tested: about 30 nM)

B3: ADX_6093_A01 alkylated (non-binding control) (designed binder)
chain: B2 chain
modifications: C-terminal cysteine alkylated with iodoacetamide
EC50 [6]: > 200 nM

B5: DA variant of ADX_6077_F02, unconjugated protein (designed binder)
chain: B4 chain
notes: also called DA variant, unconjugated
EC50 [10]: 2.2 nM

B6: ADX_6077_F02 DAR1 AdxDC (GPC3-tubulysin Adnectin drug conjugate) (designed binder)
chain: MGVSDVPRDLEVVAATPTSLLISWSDDYHAHRYYRITYGETGGNSPVQEFTVPGEHVTATISGLKPGVDYTITVYAVTYDGEKAATDWSISINYRTPCHHHHHH
modifications: tubulysin analog-linker (formula IV) conjugated through its maleimide to the C-terminal cysteine (DAR1)
notes: also called GPC3 AdxDC DAR1; ADX_6077_F02-961
AdxDC cell-killing IC50 [1]: 0.2 nM | Kd [11]: 11 nM | koff [11]: 0.00077 s⁻¹ | Kd [12]: 12 nM | koff [12]: 0.00098 s⁻¹

B7: ADX_6077_F02 alkylated (designed binder)
chain: B6 chain
modifications: C-terminal cysteine (of PC) alkylated with iodoacetamide
notes: also called alkylated (capped) Adnectin; alkylated parent
Kd [13]: 3.69 nM | koff [13]: 0.000453 s⁻¹ | kon [13]: 123000 M⁻¹ s⁻¹ | Kd [14]: 5.88 nM | koff [14]: 0.000524 s⁻¹ | kon [14]: 89000 M⁻¹ s⁻¹ | EC50 [6]: 5 nM | Fold affinity (KD) difference vs alkylated parent [15]: 1 fold | Kd [15]: 3.8 nM | koff [15]: 0.00049 s⁻¹ | kon [15]: 130000 M⁻¹ s⁻¹ | Fold affinity (KD) difference vs alkylated parent [16]: 1 fold | Kd [16]: 5.6 nM | koff [16]: 0.000534 s⁻¹ | kon [16]: 95300 M⁻¹ s⁻¹
